167 variants from the RNAGym collection of RNA variant scans (doi:10.7554/elife.80360) can be followed below.

B1: HDV Ribozyme (parent)
chain: GGCCGGCAUGGUCCCAGCCUCCUCGCUGGCGCCGGCUGGGCAACAUUCCGAGGGGACCGUCCCCUCGGUAAUGGCGAAUGGGACCCA

The variants in this series derive from B1. The experiment in a line: self-cleavage, relative activity (ratio to wild type); higher = more cleavage; co-transcriptional.
As to U9A G53A, the self-cleavage was 1.2.
The figure for G50C G76A is 0.915.
C19U G53C: the self-cleavage is 0.0875.
As for G2U G34U, the figure is 0.0369.
The figure for G1U U9G is 0.399; for G10A C33A it is 0.111; for G10A G80U it is 0.145.
The figure for C61A G80A is 0.41.
Regarding C44A G53A, the self-cleavage amounted to 0.831.
The figure for A16G A78U is 0.0692.
The figure for G25U C48G is 0; for C22G C61U it is 0.0723.
G59A A70G: the self-cleavage was determined as 1.2.
The figure for G29A C84A is 0.245.
As for C4A C14G, the figure is 0.175; as for G6A C24U, 0.308.
The figure for G76U C86G is 1.09; for G6A A42C it is 0.0831; for C48G G73C it is 0.403.
As to G38A A42G, the self-cleavage is 0.095.
The figure for C24A G82U is 0.328; for G1U A16U it is 0.262; for G5A G74A it is 0.0326.
As for G2C G17C, the figure is 0.0536.
As for C22G G28C, the figure is 0; as for G31U A83U, 0.0627.
Consider G2U C7U, for which the self-cleavage was 0.0264.
As for G53C A70G, the figure is 0.962; as for C48U U65C, 1.07.
On to G53A A78G, for which the self-cleavage is 0.618.
The figure for G31U U72G is 0.128.
The figure for C14U C49U is 0.942; for A16U C41U it is 0.997; for A16C G82C it is 0.0755.
With G50C C61U, the self-cleavage was 0.749.
As for G34U A51G, the figure is 0.339; as for G25A C41G, 0.177.
For the variant G31A U72G, the self-cleavage amounted to 0.145.
As for A8U U9A, the figure is 0.63.
As for G29C G53A, the figure is 0.133.
The figure for C24A C61U is 0.757.
On to A43G G52U, for which the self-cleavage worked out at 0.742.
In the case of C19G C86U, the self-cleavage is 0.26.
The figure for G10C U65G is 0.997; for A8G C63A it is 1.22; for C3G G25A it is 0.0511.
As for A16C C36U, the figure is 0.578; as for U27G A77C, 0.277.
As for G39C A43U, the figure is 0; as for G40A C64G, 0.531; as for G39U G50U, 0.627.
As to U65C A83U, the self-cleavage was 0.369.
The figure for G29A G82U is 0.0911; for G5C A45U it is 0.131; for U47A G55U it is 1.01.
As for A51U, the figure is 0.981; as for C22A G50U, 0.293; as for A45U U60C, 0.911.
The figure for U79C is 0.438; for C3U C7G it is 0; for U23A C44A it is 0.612.
For C4U A51C, the self-cleavage amounted to 0.723.
The figure for C3U G80A is 0.175; for C41G U65A it is 0.987.
As for G40U A71U, the figure is 0.459.
As for U20G G39A, the figure is 0.0396.
As to U60G G68A, the self-cleavage was determined as 1.02.
As for U23G A87G, the figure is 0.645; as for U9G C24A, 0.525; as for A8U U37C, 0.87.
As to C30G G39A, the self-cleavage was determined as 0.0608.
As for C14A C62G, the figure is 0.582; as for G11C A77U, 0.0462; as for G1C G59U, 0.0437.
As for A45G C84G, the figure is 0.623; as for U9C G38C, 0.107.
Regarding C4A U12G, the self-cleavage came out at 0.0536.
The figure for U60G U69A is 0.965.
As for C30A U69A, the figure is 0.353; as for A45G U72G, 0.68.
The figure for C32A G55C is 0.133; for A43C A83C it is 0.332.
Regarding C7G U79C, the self-cleavage was found to be 0.0489.
On to C41G U79G, for which the self-cleavage turned out to be 0.302.
As for U72A C85U, the figure is 0.764; as for C26U G74C, 0.519.
As for C62U G80A, the figure is 0.348; as for C32U U72A, 0.692.
As for G39A U65A, the figure is 0.396; as for G55A C66U, 1.11.
C48A G53U: the self-cleavage came out at 0.915.
As for G55U A56G, the figure is 0.912; as for A16U C84G, 1.09.
For U65C A87U, the self-cleavage turned out to be 1.08.
As for A56G C62A, the figure is 0.467.
The figure for C19U G28U is 0.172; for U27C G76A it is 0.869.
In the case of G5A A8C, the self-cleavage was determined as 0.0519.
The figure for C22G G73C is 0.0845.
For the variant C3U G17A, the self-cleavage amounted to 0.361.
As for C15A A51C, the figure is 1.14.
As to U27C A71G, the self-cleavage was found to be 0.677.
As for C44A A45U, the figure is 0.95; as for G25A A56G, 0.227.
The figure for G34U C61U is 0.208; for U46G G81A it is 0.222.
The figure for U46G G81C is 0.175.
With G68C A71U, the self-cleavage was 0.68.
As for C30G U65A, the figure is 0.032; as for G40A C58U, 1.18.
The figure for U20G U27C is 0.
The figure for G25C G67A is 0.123; for A56G C64A it is 0.764; for C13A A16C it is 0.748.
Regarding G11A C63U, the self-cleavage stood at 0.376.
As for C58A U72C, the figure is 0.802.
As for G6U A16U, the figure is 0.305.
As for G35A A83U, the figure is 0.507; as for C14A C15A, 0.582.
Consider G25U C62G, for which the self-cleavage was determined as 0.253.
Regarding G11A C41G, the self-cleavage came out at 0.188.
As for G11A C41U, the figure is 0.396; as for C19A C61A, 0.12; as for C13U C15U, 0.733.
The figure for G28U C84A is 0.0594; for G55U U79C it is 0.395.
The figure for C22A A78C is 0.0692; for U47C A87C it is 0.95.
Regarding G39A G76U, the self-cleavage stood at 0.873.
The figure for G68A G74C is 0.314; for C15U C36G it is 0.128.
The figure for C3G C14U is 0.817; for G11C A70U it is 0.399.
As for C15G G80C, the figure is 0.88; as for U79G G82A, 0.0875; as for G40U C41U, 0.937.
On to C33A G73U, for which the self-cleavage worked out at 0.233.
As for C36A C86U, the figure is 0.17; as for C13A C44U, 0.0652.
For the variant G5A U12A, the self-cleavage stood at 0.
As for C21A U23C, the figure is 0.0755; as for G10U A16U, 0.846; as for C58A A83G, 0.707.
The figure for G25U is 0.177; for G2C C63A it is 0.0213.
The figure for U37A G73U is 0.225.
For C21A G76U, the self-cleavage was 0.0906.
As for A51C A83G, the figure is 0.673; as for A45C U65A, 0.87; as for C7U A16G, 0.72.
On to G11C C63G, for which the self-cleavage worked out at 0.434.
Turning to G52C G54A, the self-cleavage worked out at 0.541.
As for U27A G81U, the figure is 0.502; as for A43U G82C, 0; as for G17A U23A, 0.686.
The figure for U9A C32A is 0.0898; for C44U C49A it is 0.892; for C24A A42U it is 0.0639.
The figure for C30A G50U is 0.729.
Turning to C22A G76C, the self-cleavage was found to be 0.447.
The figure for C48A U79A is 0.974; for A56C G74U it is 0.708; for C33A C75G it is 0.145.
The figure for C63G G67A is 0.372; for G5C C57A it is 0.111.
The figure for C33A U72A is 0.208; for G40U U60G it is 0.796.
